Source: paper PMC9409277, “Ethyl Vinyl Ketone Activates K^+ Efflux to Regulate Stomatal Closure by MRP4-Dependent eATP Accumulation Working Upstream of H2O2 Burst in Arabidopsis” (International Journal of Molecular Sciences, 2022)

T1: RBOHF-His (RBOHF residues 1-387 in pET28A) (Arabidopsis, UniProt O48538 1-387)
T1 construct: RBOHF of Arabidopsis (AT1G64060), residues 1-387; Cloned into pET28A via EcoRI/XhoI; also called RBOHF with His tag; source: E. coli Rosetta (DE3)
T1 sequence (looked up): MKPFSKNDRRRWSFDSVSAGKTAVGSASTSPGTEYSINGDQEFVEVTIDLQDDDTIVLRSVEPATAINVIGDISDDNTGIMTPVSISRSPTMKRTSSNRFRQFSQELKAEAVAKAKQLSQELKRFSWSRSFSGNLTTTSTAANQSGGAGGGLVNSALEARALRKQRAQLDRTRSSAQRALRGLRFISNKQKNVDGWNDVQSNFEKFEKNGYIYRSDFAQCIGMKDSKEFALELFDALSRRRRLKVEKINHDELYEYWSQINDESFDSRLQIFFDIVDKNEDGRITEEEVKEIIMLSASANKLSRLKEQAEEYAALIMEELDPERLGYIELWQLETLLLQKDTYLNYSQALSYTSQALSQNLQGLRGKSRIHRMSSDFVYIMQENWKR

T2: DORN1-GST (DORN1 residues 344-616 in pGEX-4T-1) (Arabidopsis thaliana (Mouse-ear cress), UniProt Q9LSR8)
T2 chain: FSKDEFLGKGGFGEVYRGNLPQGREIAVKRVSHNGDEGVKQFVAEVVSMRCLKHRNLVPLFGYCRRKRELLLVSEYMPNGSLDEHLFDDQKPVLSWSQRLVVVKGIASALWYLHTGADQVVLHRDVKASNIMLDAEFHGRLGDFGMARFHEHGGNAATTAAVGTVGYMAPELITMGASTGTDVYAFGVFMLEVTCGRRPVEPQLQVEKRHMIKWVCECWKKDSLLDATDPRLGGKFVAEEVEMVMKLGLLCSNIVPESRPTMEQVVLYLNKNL


Experiments:
[1] = target: T1, RBOHF-His (RBOHF residues 1-387 in …); test: pull-down; glutathione beads with 50 µg DORN1-GST or GST incubated with 50 µg RBOHF-His; 1% NP40, 150 mM NaCl, 50 mM Tris-HCl, 1 mM EDTA, pH 7.5; 4 °C, 2 h; immunoblot with anti-GST and anti-His; settings: both partners purified
[2] = target: T2, DORN1-GST (DORN1 residues 344-616 in …); test: GST pulldown with anti-His immunoblot

binding result [1] | binding result [2] | Binder
binds | – | DORN1-GST (DORN1 residues 344-616 in pGEX-4T-1) (domain or fragment, Arabidopsis, UniProt Q9LSR8 344-616, looked up, DORN1 of Arabidopsis (AT5G60300), residues 344-616; Printed both as DORN1-GST and as GST–DORN1; cloned into pGEX-4T-1 via EcoRI/XhoI; also called DORN-GST; source: E. coli Rosetta (DE3), on glutathione beads) FSKDEFLGKGGFGEVYRGNLPQGREIAVKRVSHNGDEGVKQFVAEVVSMRCLKHRNLVPLFGYCRRKRELLLVSEYMPNGSLDEHLFDDQKPVLSWSQRLVVVKGIASALWYLHTGADQVVLHRDVKASNIMLDAEFHGRLGDFGMARFHEHGGNAATTAAVGTVGYMAPELITMGASTGTDVYAFGVFMLEVTCGRRPVEPQLQVEKRHMIKWVCECWKKDSLLDATDPRLGGKFVAEEVEMVMKLGLLCSNIVPESRPTMEQVVLYLNKNL
– | binds | RBOHF-His (RBOHF residues 1-387 in pET28A) (protein) MKPFSKNDRRRWSFDSVSAGKTAVGSASTSPGTEYSINGDQEFVEVTIDLQDDDTIVLRSVEPATAINVIGDISDDNTGIMTPVSISRSPTMKRTSSNRFRQFSQELKAEAVAKAKQLSQELKRFSWSRSFSGNLTTTSTAANQSGGAGGGLVNSALEARALRKQRAQLDRTRSSAQRALRGLRFISNKQKNVDGWNDVQSNFEKFEKNGYIYRSDFAQCIGMKDSKEFALELFDALSRRRRLKVEKINHDELYEYWSQINDESFDSRLQIFFDIVDKNEDGRITEEEVKEIIMLSASANKLSRLKEQAEEYAALIMEELDPERLGYIELWQLETLLLQKDTYLNYSQALSYTSQALSQNLQGLRGKSRIHRMSSDFVYIMQENWKR
